Source: publication PMC4432651, “Dynamic interplay between catalytic and lectin domains of GalNAc-transferases modulates protein O-glycosylation” (Nature Communications, 2015)

Target: polypeptide N-acetylgalactosaminyltransferase 2 (GalNAc-T2), K75-Q571 (UniProt Q10471)
Assay: other fluorescence titration; tryptophan fluorescence quenching, 25 °C, GalNAc-T2 at 1 μM, peptides 1 to 500 μM, 25 mM Tris, 150 mM NaCl, pH 7.5; without UDP/Mn+2; single binding site model

polypeptide N-acetylgalactosaminyltransferase 2 (GalNAc-T2), K75-Q571, sequence (Q10471 75-571): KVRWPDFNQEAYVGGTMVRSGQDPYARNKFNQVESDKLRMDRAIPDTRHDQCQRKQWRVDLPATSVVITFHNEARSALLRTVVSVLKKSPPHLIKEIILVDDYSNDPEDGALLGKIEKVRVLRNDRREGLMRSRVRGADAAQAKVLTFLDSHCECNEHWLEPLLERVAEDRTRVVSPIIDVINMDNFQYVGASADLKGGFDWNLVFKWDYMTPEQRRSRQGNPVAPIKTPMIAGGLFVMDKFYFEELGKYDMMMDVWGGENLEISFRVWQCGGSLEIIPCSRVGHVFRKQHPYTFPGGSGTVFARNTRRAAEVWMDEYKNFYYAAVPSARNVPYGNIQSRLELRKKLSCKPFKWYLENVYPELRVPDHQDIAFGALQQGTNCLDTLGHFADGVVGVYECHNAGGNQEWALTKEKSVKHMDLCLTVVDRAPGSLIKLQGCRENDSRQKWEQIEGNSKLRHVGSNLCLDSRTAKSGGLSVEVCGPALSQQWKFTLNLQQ

MUC5AC peptide (naked)
fold change of Kd, without UDP/Mn+2 against with UDP/Mn+2: 4 fold
